Measured values published in patent US8853367.

Target: chimeric receptor comprising mouse TNFR1 external domain (AA 1 to AA 210) linked to the transmembrane and intracellular domains of mouse RANK (AA 210 to AA 625) (mouse)
Assay: cell-based or functional assay

Sequence of chimeric receptor comprising mouse TNFR1 external domain (AA 1 to AA 210) linked to the transmembrane and intracellular domains of mouse RANK (AA 210 to AA 625) (mouse) (chain, as listed by the source mutant): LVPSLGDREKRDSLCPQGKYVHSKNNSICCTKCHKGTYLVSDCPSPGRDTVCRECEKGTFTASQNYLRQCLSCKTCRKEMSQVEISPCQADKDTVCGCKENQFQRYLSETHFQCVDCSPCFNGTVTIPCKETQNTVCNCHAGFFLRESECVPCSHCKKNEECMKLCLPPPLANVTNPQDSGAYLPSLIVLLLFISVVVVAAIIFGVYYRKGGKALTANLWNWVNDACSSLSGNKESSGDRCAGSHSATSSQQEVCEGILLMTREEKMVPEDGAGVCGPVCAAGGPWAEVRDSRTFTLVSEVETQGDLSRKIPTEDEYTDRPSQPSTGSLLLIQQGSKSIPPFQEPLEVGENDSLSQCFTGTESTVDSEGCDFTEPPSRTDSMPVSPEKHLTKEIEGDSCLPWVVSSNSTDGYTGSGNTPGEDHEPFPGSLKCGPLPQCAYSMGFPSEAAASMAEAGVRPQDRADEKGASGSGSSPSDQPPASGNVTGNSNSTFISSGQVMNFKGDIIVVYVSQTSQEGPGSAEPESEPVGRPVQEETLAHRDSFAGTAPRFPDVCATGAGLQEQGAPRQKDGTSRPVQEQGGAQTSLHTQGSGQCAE

Recombinant mouse TNFα (410-TRNC-050, R&D Systems) (from UniProt P06804 84-235) (ligand)
osteoclast formation, lowest TNFα concentration still active: 1 ng/mL
